# From paper doi:10.1101/2022.04.27.489770
# Molecular target: Spt6-YW with a C-terminal 3XFLAG epitope tag (S. cerevisiae) (UniProt P23615)
# Assay: co-IP
# UniProt P23615, sequence (P23615 whole entry): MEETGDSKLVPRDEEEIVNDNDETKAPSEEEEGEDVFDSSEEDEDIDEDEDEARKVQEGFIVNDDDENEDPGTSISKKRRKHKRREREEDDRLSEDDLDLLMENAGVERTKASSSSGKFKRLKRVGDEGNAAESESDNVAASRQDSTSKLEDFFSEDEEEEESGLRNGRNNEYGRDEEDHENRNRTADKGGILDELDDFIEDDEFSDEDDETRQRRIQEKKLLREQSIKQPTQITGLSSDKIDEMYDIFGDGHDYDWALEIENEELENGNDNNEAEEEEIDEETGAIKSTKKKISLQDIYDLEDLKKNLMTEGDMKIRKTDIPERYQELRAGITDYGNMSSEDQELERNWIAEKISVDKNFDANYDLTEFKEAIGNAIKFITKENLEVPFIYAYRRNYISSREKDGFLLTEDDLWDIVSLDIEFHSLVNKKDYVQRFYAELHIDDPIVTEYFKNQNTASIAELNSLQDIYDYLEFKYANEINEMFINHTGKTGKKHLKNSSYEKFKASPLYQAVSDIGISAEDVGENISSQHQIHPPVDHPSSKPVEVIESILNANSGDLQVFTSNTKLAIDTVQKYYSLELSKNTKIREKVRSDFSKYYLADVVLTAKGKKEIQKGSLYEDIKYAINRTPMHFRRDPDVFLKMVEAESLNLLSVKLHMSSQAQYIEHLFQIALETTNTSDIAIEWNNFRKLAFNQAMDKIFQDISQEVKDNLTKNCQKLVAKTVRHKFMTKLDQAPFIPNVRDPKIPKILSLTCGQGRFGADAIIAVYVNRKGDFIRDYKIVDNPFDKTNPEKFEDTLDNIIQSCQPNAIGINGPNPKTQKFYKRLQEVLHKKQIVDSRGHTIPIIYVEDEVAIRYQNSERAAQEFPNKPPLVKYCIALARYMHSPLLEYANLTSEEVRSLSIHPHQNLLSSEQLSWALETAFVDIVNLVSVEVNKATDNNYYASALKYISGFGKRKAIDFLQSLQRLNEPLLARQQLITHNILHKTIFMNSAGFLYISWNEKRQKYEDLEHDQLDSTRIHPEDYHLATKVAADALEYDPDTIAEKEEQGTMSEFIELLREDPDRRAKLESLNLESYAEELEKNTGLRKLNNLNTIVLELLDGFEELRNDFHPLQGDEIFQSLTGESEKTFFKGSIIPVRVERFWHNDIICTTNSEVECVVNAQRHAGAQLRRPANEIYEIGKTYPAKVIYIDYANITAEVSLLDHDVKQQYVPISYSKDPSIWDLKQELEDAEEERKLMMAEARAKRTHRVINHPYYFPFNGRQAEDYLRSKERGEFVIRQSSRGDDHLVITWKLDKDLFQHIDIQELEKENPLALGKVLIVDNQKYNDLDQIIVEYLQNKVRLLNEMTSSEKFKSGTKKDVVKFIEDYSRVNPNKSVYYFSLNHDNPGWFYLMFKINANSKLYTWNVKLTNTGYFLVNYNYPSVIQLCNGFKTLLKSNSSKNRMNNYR
binder,measurement,value
Mcm4-V5 (natural protein) MSQQSSSPTKEDNNSSSPVVPNPDSVPPQLSSPALFYSSSSSQGDIYGRNNSQNLSQGEGNIRAAIGSSPLNFPSSSQRQNSDVFQSQGRQGRIRSSASASGRSRYHSDLRSDRALPTSSSSLGRNGQNRVHMRRNDIHTSDLSSPRRIVDFDTRSGVNTLDTSSSSAPPSEASEPLRIIWGTNVSIQECTTNFRNFLMSFKYKFRKILDEREEFINNTTDEELYYIKQLNEMRELGTSNLNLDARNLLAYKQTEDLYHQLLNYPQEVISIMDQTIKDCMVSLIVDNNLDYDLDEIETKFYKVRPYNVGSCKGMRELNPNDIDKLINLKGLVLRSTPVIPDMKVAFFKCNVCDHTMAVEIDRGVIQEPARCERIDCNEPNSMSLIHNRCSFADKQVIKLQETPDFVPDGQTPHSISLCVYDELVDSCRAGDRIEVTGTFRSIPIRANSRQRVLKSLYKTYVDVVHVKKVSDKRLDVDTSTIEQELMQNKVDHNEVEEVRQITDQDLAKIREVAAREDLYSLLARSIAPSIYELEDVKKGILLQLFGGTNKTFTKGGRYRGDINILLCGDPSTSKSQILQYVHKITPRGVYTSGKGSSAVGLTAYITRDVDTKQLVLESGALVLSDGGVCCIDEFDKMSDSTRSVLHEVMEQQTISIAKAGIITTLNARSSILASANPIGSRYNPNLPVTENIDLPPPLLSRFDLVYLVLDKVDEKNDRELAKHLTNLYLEDKPEHISQDDVLPVEFLTMYISYAKEHIHPIITEAAKTELVRAYVGMRKMGDDSRSDEKRITATTRQLESMIRLAEAHAKMKLKNVVELEDVQEAVRLIRSAIKDYATDPKTGKIDMNLVQTGKSVIQRKLQEDLSREIMNVLKDQASDSMSFNELIKQINEHSQDRVESSDIQEALSRLQQEDKVIVLGEGVRRSVRLNNRV,fold reduction of co-immunoprecipitation against wild-type Spt6,2 fold
